Test results taken from the nanobody polyreactivity screen of Harvey et al. (2022).

Assay: yeast display, Sf9 membrane polyspecificity reagent, FACS + sequencing; frameworks hold sequencing errors
Outline: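 In a synthetic yeast display library (Saccharomyces cerevisiae BJ5465), nanobody expression was induced with galactose for 36–48 hours. FACS gates were set low and high (top ~1%) using anti-HA fluorescence for expression and streptavidin fluorescence for binding of the Sf9 membrane reagent. Each polyreactivity label is drawn from the gate of origin.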

QVQLVESGGGLVQAGGSLRLSCAASGSYAKGWYRQAPGKERELVAYINGRDGSTYYADSVKGRFTISRDNAKNTVYLQMNSLIPEDTAVYYCNADYVLQYNYWGQGTQVTVSS
polyreactivity (PSR sort gate): low polyreactivity

QVQLVESGGGLVQAGGSLRLSCAASGRTFYLYTMGWYRQAPGKERELVAAISRGGRTYADSVKGRFTISRDNAKNTVYLQMNSLKPDDTAVYYCAAESVYHGWSYQHGKGDYWGQGTQVTVSS
polyreactivity (PSR sort gate): low polyreactivity

QVQLVESGGGLVQAGGSLRLSCAASGSTFYKNSMGWYRQAPGKERELVATISASSTSTYYADSVKGRFTISRDNAKNTVYLQMNSLKPEATAVYYCSKVYVHGSTYGYYWYGYDYWGQGTQVTVSS
polyreactivity (PSR sort gate): low polyreactivity

QDQLVESGGGLVQARGSLRLSCASSGSTFDTNTMGWYRQAPGKERELVASNSRGTSTKYADSVKGRFTISRDNAKNTVYLQMNSLKPEDTAVYYCNAVSRDKSLYDYWGQGTQVTVSS
polyreactivity (PSR sort gate): high polyreactivity

HVQLVESGGGLVQAGGSLRLSCAASARIFVTYAMGWYREAPGKETELVAAISSRGGRTNYADSVKGRFTISRDNAQNTVYLQMNSLKPEYTAVYYFAARYWYIYNYDYWGQGTQVTVSS
polyreactivity (PSR sort gate): high polyreactivity

QVQLVESGGGLVQAGGSLRLSCAASGSIFERNAMGWYRQAPGKERELVAAISWSSARTYYADSVKGRFTISRDNAKNTVYLQMNSLKPEDTAVYYCAARVWNEGVRYDYWGQGTQVTVSS
polyreactivity (PSR sort gate): high polyreactivity

QVQLVESGGGLVQAGGSLRLSCAASGSTFPQYAMGWSRQAPGKERELVAAISWSGGRTYYADSVKGRFTISRDNAKNTVYLQMNSLKPEDTAVYYCAATYPGQYGYNYWGQGTQVTVSS
polyreactivity (PSR sort gate): high polyreactivity

QVQLVESGGVLVQAGGSLRLSCAASGSTLSPYVMGWYRQAPGKERELVATISRSGGRTYYADSVKGRFTISRDNAKNTVYLQMNSLKPEETAVYYCAARTYYWGALIVSYDYWGQGTQVTVSS
polyreactivity (PSR sort gate): low polyreactivity

QVQLVESGGGLVQAGGSLRLSCAASGIILYRYAMGWYRQAPGKERELVAAISRRGGSTYYADSVKGRFTISRDNAKNTVYLQMNSLKPEDTAVYYCATRSTFYSRWGEVYTYYYWGQGTQVTVSS
polyreactivity (PSR sort gate): high polyreactivity

QDQLVESGGGLVQAGGSLSLSCAASGRTFTVYAMGWYRQAPGKERELVAAISGSSGSTDYADSVKGRFTISRDNAKNTVYLQMNSLKPEDTAVYYCAKASSATRYVQLRQDYDYWGQGTQVTVSS
polyreactivity (PSR sort gate): low polyreactivity

QVQLVESGGGLVQAGGSLRLSCAASGIILAGYGMGWYRQAPGKERELVAAINGCGGSTYYADSVKGRFTISRDNAKNTVYLQMNSLKPEDTAVYYCATDWWSGLYYYWGQGTQVTVSS
polyreactivity (PSR sort gate): high polyreactivity

QVQLVESGGGLVQAGGSLRLICADSGSTFTGNAMGWYRQAPGKERELVAAISRSGGRTYYADSVKGRFTISRDNAKNTVYLQMNSLKPEDTAVYYCNAVRNRGQRTAFDYWGQGTQVTVSS
polyreactivity (PSR sort gate): high polyreactivity

QFQLLESGGGLVQAGGSLRLSCAASGSIFTRNAIGWYRQAPGSERELVAAITSAGSTSYADSVKGRFTISRDNAKNTVYLQMNSQKPEDTAVYYCNTVPGRYRTFDYWGQGTQVTVSS
polyreactivity (PSR sort gate): high polyreactivity

QVQLVESGGGLVQAGGSLRLSCAASGSPFVDNDMGWSRQAPGKDRELVAAAITARGGSTYYADSVKGRFTISRDNAKNTVYLQMNSLKPEDTAVYYCAAGRPGELDYWGQGTQVTVSS
polyreactivity (PSR sort gate): low polyreactivity

QVQLVESGGGLVQAGGSLRLSCAASGRTFDWNAMGWYRQAPGKERELVAAITYSGGGTYYADSVKGRFTISRDNAKNTVYLQMNSLKPEDTAVYYCAAGYPGTWSYYYWGQGTQVTVSS
polyreactivity (PSR sort gate): low polyreactivity

QVQLVESGGGLVQAGGSLRLSCAASGRTFARYAMGWYRQAPGKERELVAAISSSGGSTYYADSVKGRFTISRDNAKNTVYLQMNSLKQEDTAVYYCVTYRNWWYDYWGQGTQVTVSS
polyreactivity (PSR sort gate): high polyreactivity

QVQLVESGGGLVQAGGSLRLSCAASGSTFQWYTMGWYRQAPGKERELVAAISRSGGRTYYADSVKGRFTISRDNAKNTVYLQMNSLKPEDTAVYYCAARWGRLPEQYRYDYWGQGTQVTVSS
polyreactivity (PSR sort gate): high polyreactivity

QVQLVESGGGLVQAGGSHRLSCAASGRTLGGYAMGWSRQAPGKERELVAAISYSGGSTYYADSVKGRFTISRDNAKNTVYLQMNSLKAEFTAVYYCARDYSWYYYGSQLFAHDYWGQGTQVTVSS
polyreactivity (PSR sort gate): low polyreactivity

QVQLVESGGGLVQAGGSLRLSCASSGRIFYSYAMGWYRQAPGKERELVAAITVSGGSTFYADSVKGRFTISRDNAKNTVYLQMNSLKPEDTAVYYCAAQSTTIEDGWYVEYNYWGQGTQVTVSS
polyreactivity (PSR sort gate): high polyreactivity

QVQLVESGGGLVQAGGSLRLSCAASGSIFHHNAMGWYRQAPGKERELVAAISSRSGNTYYADSVKGRFTISRDNAKNTVYLQMNSLKPEDTAVYYCAAGKRLSYSTYDSWGQGTQVTVSS
polyreactivity (PSR sort gate): high polyreactivity

QVQLVESVGGFVQARGSLRLSCAASGFTFSYNAMRWYSQAPGKERELVATIRSSGGSTNYADSVKGRFTISRDNAKNTVYVQMNSLKPEDTAVYYCAADFSYYSTYDYWGLGTQVTVSS
polyreactivity (PSR sort gate): low polyreactivity

QVQLVESGGGLVQAGGSLRLSCAASGRILIRYAMGWYRQAPGKERELVASISTRGASTSYADSVKGRFTISRDNAKNTVYLQMNSLKPEDTAVYYCNARGSYPPYRSYGYWGQGTQVTVSS
polyreactivity (PSR sort gate): low polyreactivity

QVQLVESGGRLVQAGGSLRLSCAASGRIFWHNAMGWYRQAPGKETELVAAISSRGGSTSYSDSVKGRFTISRDNAKNTVYLQMNSLKPEDTAVYYCAALFRPRVHRYDYWGQGTQVTVSS
polyreactivity (PSR sort gate): low polyreactivity

QVQLVESGGGLVQAGVSLRLSSAASGSTFLYYAMGWYRQAPGKESEMVAAIDWSDTSTYFADSVKGRFTISRDIAKNTVYLQMNSLKTEDTAVYYCIREATYVYAAGYDYWGQGTQVTVSS
polyreactivity (PSR sort gate): low polyreactivity

QVQLVESGGGLVQAGGSLGLSCAASGSIFSDYAMGWYRQATGKERELVAAITQSGGSTYADSVKGRFTISRDNAKNTVYLQMISLKPEDTAVYYCAADEVPGFGYPPYPWFDYWGQGTQVTVSS
polyreactivity (PSR sort gate): low polyreactivity

QVQLVESGGGLVQAGGSLRLSCAASGSIFQDYTMGWYRQAPGKDRELVAAITDNGGSTYYADSVKGRFTISRDNAKNTVYLQMNSLKPEDTAVYYCAKDWDYSAPGYYLYGYWGQGTQVTVSS
polyreactivity (PSR sort gate): low polyreactivity

QVQLVESGGGLVQAGGSLRLSCAASGSIIGRYAMGWYRQAPGKERELVAAISKNGGSRYYADSVKGRFTISRDNAKNTVYLQMNSLKPEDTAVYYCNTVRYSCNYRDQEGDYWGQGTQVTVSS
polyreactivity (PSR sort gate): high polyreactivity

QVQLVESGGGLVQAGGSLRLSCAASGSTFTLYAMGWSRPAPGKERELVATISWNGGRTYYADSVKGRFTISRDNAKNTVYLQMNSLKPEDTAVYYCAADTYDADYDYWGQGTQVTVSS
polyreactivity (PSR sort gate): high polyreactivity

QVQLVESGGGLVQAGGSLRLSCAASGSIIPLYAMGWYRQAPGKERELVAAISRRGGSTYYADSVKGRFTISRDNAKNTVYLQMNSLKPEDTAVYYCAVDTPSPSRGPRFNYWGQGTQVTVSS
polyreactivity (PSR sort gate): high polyreactivity

QVQLVDSGGGLVQAGGSLRLSCAASGRIFFANAMGWYRQAPGKERELVAAISWRGGSTYYADSVKGRFTISRDNAKNTVYLQKNSLKPEDTAVYYCAATSRGTDYWGQGTQVTLSS
polyreactivity (PSR sort gate): high polyreactivity

QVQLVESGGGLVQAGFSLRLSCAASGFTFKYYAMGWYRQAPGKERELVAAISSGGSTYYADSVKGRFTISRDNAKNTVYLQMNSLKPEDTAVYYCNRRFAPFWGRYGYWGQGTKVTVSS
polyreactivity (PSR sort gate): high polyreactivity

QVQLVESGGGLVQAGGSLRLSCAASGSTFKRYAMGWYRQAPGKERELVAAISRRGGSTYYADSVKGRFTISRDNAKNTVYLQMNSLKPEDTAVYYCAARIASHLYYYWGQGTQVTVSS
polyreactivity (PSR sort gate): high polyreactivity

QVQLVESGGGLVQAGGSLLLSCAASGTTSLVNAMGSYRQAPGKERELVAAISWSGGSTYYADSVKGRFTISRANAKNTVFLQRNSLKPEDTAVYYCAAESYGYWEYDYWGQGTQVTLSS
polyreactivity (PSR sort gate): high polyreactivity

HVQLVESGGGLVQAGGSLRLSCAASGSTCRYYARGWYRQAPGKERELGAAISGRGARTYYADSVKGRFTISRDNAKNTVYLQMNSLKPEDTAVYYCAAVGYRYRHSRYYWGQGTQVTVSS
polyreactivity (PSR sort gate): high polyreactivity

HVQLVESGGGLVQAGGSLRLSCAASGSTFSGYAMGWYRQAPGKERELVAAISSSGGSTYYADSVKGRFTISRDNAKNTVYLQMNSLKPEDTAVYYCNADEYRGTSTEFEYWGQGTQVTVSS
polyreactivity (PSR sort gate): high polyreactivity

QVQLVESGGGLVQAGGSLRLSCAASGYIFYGYAMGWYRQAPWKESEWVAAITVRGGSTYYADSVKGRFTISRDKAKNTVYLQKNSQKPEDTAVYYCAAAPQFTFGVGYWGQVTQVTVSS
polyreactivity (PSR sort gate): low polyreactivity

QVQLVESGGGLVQAGGSLRLSCAASGRIFKLYAMGWYRQAPGKERELVAAISKSGGNTYADSVKGRFTISRDNAKNPVYLQMNSLKPEDTAVYYCAATVQSTSDPFDYLGQGTQVTVSS
polyreactivity (PSR sort gate): low polyreactivity

QVQLVESGGGLVQAGGSLRLSCAASGSTFSGYAMRWYRQAPGKERELVATITRRGGNTYDADSVKGGFTISRDNAKNTVYLQMNSLKPEDTAVYYCAKEGRVQSPYHYWGQGTQVTVSS
polyreactivity (PSR sort gate): low polyreactivity

QVQLVESGGCLVQAGGSLRLSCAASGRTFYFYTMGWYRQAPGKERQLVATIRWSAGSTYYADSVKGRFTISRDNAKNTVYLQMNSLKPEDTAVYYCNADPYVYSSWQYGYWGQGTQVTVSS
polyreactivity (PSR sort gate): high polyreactivity

QVQLVESGGGLVQAGGSLRLSCAASGRIFNHNDMGWYRQAPGKERELVAAIDGSDSSTYYADSVKGRFTISRDNAKNTVYLQMNSLKTEDTAVYYCNADTNWLYTTGKYDYWGQGTQVTVSS
polyreactivity (PSR sort gate): low polyreactivity

QVQLVESGGGLVQAGGSLRLSCAASGFTFESNAIGWYRQAPGKERELVAAISSSGGSTYYADSVKGRFTISRDNAKNTVYLQMNSLKPEDTAVYYCNAYSLYYGGYDYWGQGTQVTVSS
polyreactivity (PSR sort gate): high polyreactivity

QVQLVESGGGLVQAGGSLRLSCAASGGIFVPNAMGWNRQAPGQEREFVARISFSGVSTYYADSVKGRFTISRDNAKNSVYLQLNSLKPEDTAVYYCACDKRARLGAMGYWGQGTQVTVSS
polyreactivity (PSR sort gate): low polyreactivity

QVQLVESGGGLVQAGGSLRLSCAASGSIFYPNAMGWYRQAPGKEREFVAAISKSGGNTYYADSVKGRFTISRDNAKNTVYLQMNSLKPEDTAVYYCAARTQAFSRKGYGYWGQGTQVTVSS
polyreactivity (PSR sort gate): high polyreactivity
